The results in this text go back to patent US20190225703A1.

In the test the target is cynomolgus CD73 expressed at the cell surface (cynomolgus). The test can be described thus: flow cytometry titration on cynomolgus-CD73-expressing cell line. (In flow cytometry, cells or beads pass a laser one at a time.)

Regarding “antibody AD2 (Biolegend Corp, product ref. 344004)”, the EC50 turned out to be 1.15 µg/mL and the fold higher concentration (EC50) than 7H10 was determined as 4 fold.

By EC50 is commonly meant the concentration at which the effect is half-maximal.
